Measured values as given in a protein production outcome set (Wang et al. 2014).

Assay: label from the status in PepcDB records

Sequence | protein production
MRKVTAAVMASTLAFSFLSHAAEVVTSDNWHPGDGATQRSAQNHMFDGISLTEHQRQQMRDLMQQARHEQPPVNVSEMETMHRLVTAEKFDESAVRAQAEKMAQEQVARQVEMARVRNQMYRLLTPEQQAVLNEKHQQRMEQLRDVAQWQKSSSLKLLSSSNSRSQLEHHHHHH | failed
MTQRDTGRLDAIVLAAGRGVRFGGGKLTALLDGDPLVAAALLTAFLAPARRVVVAVGPEPDVRQAVEATATRLLARERLVLVPIDDPSAGMGASLAAAARSLPGDTDGVFVFLGDMPRIDPATPRHLAAALRDPGDIVAPTYLGRRGHPVLFGARWAPVLGALSGDEGARAIVDKAGESLVLVPVDDPGVHLDVDRPSDLARVQTDRRTLLEHHHHHH | not failed
MSLFEAILIILVLIIISAVISSSEISLAGARKLKLHSLAKDGDIRAEKVMRLQEQPGRFITMVQIGLNMVAILGGVVGESAITPYLAKLLAQYSQAEWTESTASWLSFALVTSAFVLLADLMPKRIAMTYPEQVAVRTINIMLCLITIFKPLVLLFDSIANLLFRLFGISTVRQDNMTSEDIVAVVDAGAKAGILKAQEHYLIENVFEMQERRVTSTMTTRENIIFLDRKDNREQVLATLGEDPYSKVLICDNGLDKILGYIETHDLLTQYLKNDHVSLVDSRLLRKPVFIPDTLSLYEVLELFKSAGEDFAVIVNEYALVVGILTINDVMSIVMGELVSTEEEQIMRRNEDSWLIDGATPLEDVMRALNIHTFPRDENYETIGGFMMYMLRKIPKKTDFVLYDKYKFEIIDTENFRIDQLMVSFRKDV | failed
EDFVDPWTVQTSSAKGIDYDKLIVRFGSSKIDKELINRIERATGQRPHHFLRRGIFFSHRDMNQVLDAYENKKPFYLYTGRGPSSEAMHVGHLIPFIFTKWLQDVFNVPLVIQMTDDEKYLWKDLTLDQAYSYAVENAKDIIACGFDINKTFIFSDLDYMGMSSGFYKNVVKIQKHVTFNQVKGIFGFTDSDCIGKISFPAIQAAPSFSNSFPQIFRDRTDIQCLIPCAIDQDPYFRMTRDVAPRIGYPKPALLHSTFFPALQGAQTKMSASDPNSSIFLTDTAKQIKTKVNKHAFSGGRDTIEEHRQFGGNCDVDVSFMYLTFFLEDDDKLEQIRKDYTSGAMLTGELKKALIEVLQPLIAEHQARRKEVTDEIVKEFMTPRKLSFDFQ | not failed
MAPMIPHPPAVLAHRLSEGQRLATPLMRALMRATGTQVDAAIARTIAELGAHCGADRTRVYRIEAGQVLDCTHEWCRSGISEIRPEMQRIPLGTLDRWMPILRRGEPVDVPDLHGLPEDDPAKQQMARHGIRALVLMPLTAGTALTGVVGLSLFRARRPVDPAEMALLHSIAEAMGAALARRDAERRAVAARSAARDVARNLERLARVTELMTNLVIVTDVEQQIVWVNRAFERQTGHSLEAIRGRNFAEVVRGPGTDPGVCAAVAEAIRTCSSCEGETINYTAAGQPYWIRFNAHPLSDADGRYAGHASVETVITDRKVLERELATRNAFLTAVLQTSVSAIVALNAEGGIVYANDEARRLLVLQPHRGGLRMEAVLETLDGRPLPEADMPSALVRATGAPLHDLRYAIRRPDGQFGILSINAAPLPQAADDARIVISVTDITHAEASAERLRRQAAEDPLTGLANRRALADAVETRLTEAAPFALVMLDLDNFKAVNDLQRHDTGDAVLRIAADRLRAVAGADCLVARMGGDEFMVLAPGTDAASAPRLAEALRAAISAPIEVGRQPVHLAASAGIALHPEHGTSMALLMTGADIALHAAKRAGRNRSVLLSQAQFAAEARRSAITQALAADVEADLRLVFQPQFRACGAFDGAEALLRWTDPRLGEIGPAEFIPIAEEAGLIQRIDAHVAVLAARQLGLWARRGWRHRLAVNASAQTFARAGFAEELLQHLAEEDVCPQQLVVELTDTSLATLSSVADHNIATLRRAGVGIAIDDFGTGYASLSYLHRIEATEIKIDRGFVAGLETAERRDSKPLIQAILSLAHALGLAVTAEGVETERQRSWLSAEGCDRLQGYLLGRPLPVEAFEAAFVTPAAVPG | failed
MFTTTSFPDFDSAAQATLTYLHQRMGLSLWMITRTEVDNWIVLQAQDNGYGVKRGDVFHWPDSFCSRMVRGEGPHIAPQSNLVEAYRNAPIAQQVDIGAYVGVPITYGNGSLFGTLCAIDPEIQPDSLVDELPLVELIAQLLSTILDFFLKAEIASRREEYQQLLKERDGTTGFYSLSGWEKLLASEEIRCQKFGFPVSVIIVEVEAAEPKGEEPINDLILQRAAKIIKTVCRQDDFCARIGEREFAILCIECHISQADFIRERLALGFEQGKITADIGIGERSPEKGLLDAMETAKSAAHEQKKFRVKTEG | failed
MTTALRQPTLSSQCLAEFLGTALLIFFGTGCVAALKVAGASFGLWEISIIWGVGVSMAIYLTAGISGAHLNPAVSIALTLFAGFDKRKLPFYMLAQVCGAFCGAALVYTLYSNLFFDFEQAHAMLRGSEGSLELASVFSTYPHPSLSTSQAFLVEVVITAILMAVIMALTDDNNGLPRGAMAPLLIGLLIAVIGSAMGPLTGFAMNPARDFGPKLMTFLAGWGEIAFTGGRDIPYFLVPVFAPILGACLGAASYRGLIARNLPMAPAATPETNDIRQGDTQAN | failed
MTDARTTVVVITHNRCAEVLRTLDRLAELPERPAVIVTDNGSTDGTAAAVARHHPGVRLLRSGRNLGAVGRNLAVRQVTTPYVAFCDDDSWWAPGSLSGAADLLDRYPAVGSVTARILVEPEGTEDPIVEELRDSPVPRPDWLPGPALGSFLAAATVLRTDAFRAAGGFHPRLWLGGEEELLAADLAANGWWLTYAGQLTIHHHPSGVRDSTVRRSHGIRNTLWFTWLRRPVGPALRRTLHLARTVPRDTASLRAFAEATAALPWVLRERRVLPPEVEARLRALEPAQRDSTARSYTGLEHHHHHH | failed
MNIGRHLLLVLFGWLPVRLGFAADAISVVDKQPVNWVAITMFAVFVLITLWITQWAAKKTRSSADFYTAGGTVTGFQNGLAIAGDYVSAASFLGITSAVMANGYDGMLYAIGFLVGWPILTFLIAERLRNLGKYTFADVVAYRFAATSVRLFASVSTLVVVLCYLIAQMVGAGALIRLLFGLDYWVAMVLVGGLMMVYVLFGGMAATTWVQIIKAVLLLIGATFMAVMIMRRFGFNFEGLFASAVEVKTQIAMAGGKSGEEAKALGLSIMAPGSFIKDPISAISLGIALVFGTAGLPHILMRFFTVPDARQARHSVLWAITWIGYCYILMFIIGFGAIVLVLANPQYADIASGTIRGGQGAANMAAVLVAKVVGGNVFMGFVSAVAFATILAVVAGLALSGASAVSHDVYAMVIKQGKPSSDTELLVSRVTTAVLGVVAVLLGIVFQKQNVAFMVSLAFAIAASANFPVLVLSLFWKNCTTRGAVIGGFLGLISSLVLTVLSPSVWVDTLGHSVDSVRFPYTSPALFSMTIGFVGIWLFSVLDRSGRAAKERVAFKAQQVRAETGLGASKMSPN | failed
MNTYAQESKLRLKTKIGADGRCVIEDNFFTPPFKLMAPFYPKDDLAEIMLLAVSPGMMRGDAQDVQLNIGPNCKLRITSQSFEKIHNTEDGFASRDMHIVVGENAFLDFAPFPLIPFENAHFKGNTTISLRSSSQLLYSEIIVAGRVARNELFKFNRLHTKISILQDEKPIYYDNTILDPKTTDLNNMCMFDGYTHYLNLVLVNCPIELSGVRECIEESEGVDGAVSETASSHLCVKALAKGSEPLLHLREKIARLVTQTTTQKV | failed
MKRENIKTILLTVLVVISLVFTWGIWTFQPNFSEGSSSTESTVRVKHKIEKTTQKLSETVRPRDMFIHDDGAHYKVDDNALYEEIWSDLPHWDVKGIKDISDQYDKAGFKSWFYGIGGSEAKLDLQFSDTIPIDIFQTLFKWSNQSFEYSSFDHILIPFNETKANKKIYLVSYSKQLILEVTVESANYRNIMNDLKNRQSNMPAFSLFSIGSKKEFLLPNKPLTMDKKEFVTESIKTNTFKQALFSDPSIVREDSNYNNRNVLTDGISRLDVNLSQRQVQFQQRNLVQSTSYQTGELIKKSQKYLEDTGSWTDHYQFFNINDSQQLSFYIFMDQIPVINSTAKPFGATSAITVQWANDDILSYKRPNYSLGTNPIKTSETELMGGSEVKMLLSKQTAYDTDKIDQIFLAYQLVSTSTNDDPLVELEPVWAMKVNGKIVPITKDLLRKEGANSGVE | failed
MSEENRAVVSRMTEEDVRQLIKRKDDIEEQIKAYYDMLESQAGVGMDGPLVDVEGFPRADVDLYKVRTARHSISCLQNDHKAIMVEIEEALHKLHATARVTHEQDDTQMESSGQTVETPPPFALVDAVTHGSPAAQAGLHVGDQIMEFGSVNTQNFRNLRDIASVVQHSEGKSLRVGVFRNGQEVHLNLTPQQWSGRGLLGCNIVPLHR | failed
MLKNHPKGLISASLTNMGERFGFYIMMGILLLFLQAKFGLSGKEASVIYSIFYASVYVLALVGGIIADSMKNYKGTILVGLIVMAAGYVMLGIPTPTQATGMTPWLIFTCAALAFISFGNGLFKGNLQALVGRMYDNDTYRDKRDSGFSLFYMFINVGAVFAPLVAVAIRNWWVQHNGFVYNADLPERCHQILNGTLPENAKAQVMEMIQAANNGTAVATEGLQEFALKYIQVFSTGFHYAFLAAVFFMAISFLIYIINKHQYPADQKANAVTEAHKDQKQEIKMAADEIRQRIIALCAVFGVVIFFWMSFHQNGVSLTQFAKDYIDLSSVKLDLGFTSIVGAEMFQSINPFFVVTLTPLLLFIFGFLKKRNMEPSTPKKIVIGMFIAALAFVVMAIGSMGLPTFEERNAGVEFTKVSPWLMVLTYMILTIAELFISPMGISFVSKVAPPHLQGIMQGLWLCATAVGNSLLFVGMILYESLSISATWIVFTCACALSMLVMLSMVKWLERVAK | failed
MLEDLIGKAYLESAEDRRRGDRSEEVEAIRKYIRSARRTVVPNWNAEKVDAINDVLRSFNLREAEHLQFNTNWADLTRMPAVTKALMALDISGADLVIARGRLGVPGSGSLLVIMDSRGRLLSAAMSPPHVIHSMEVREAVRSEMTHALERIGFKR | not failed
MALKPTIYKFRIALSDMNNDYYDSKNLTIALHPSEKPQRMLARILAFCLNAQKDLEFTKGLSTTEEPDLWHVADDQSITHWIEIGEPEPDRIKKASRLAKQVKVYTYNTKAPVWWEKMSGKFSMLPVSVESFDYDAIDMICQHLDRGTNLSVMITGTSIFVDVNDQHVEVTVKELQSHDAP | not failed
MSLIVVTGGAGFIGSHVVDKLSESNEIVVIDNLSSGNEEFVNEAARLVKADLAADDIKDYLKGAEEVWHIAANPDVRIGAENPDEIYRNNVLATYRLLEAMRKAGVSRIVFTSTSTVYGEAKVIPTPEDYPTHPISLYGASKLACEALIESYCHTFDMQAWIYRFANVIGRRSTHGVIYDFIMKLKRNPEELEILGNGEQNKSYIYISDCVDAMLFGLRGDERVNIFNIGSEDQIKVKRIAEIVCEELGLSPRFRFTGGDRGWKGDVPVMLLSIEKLKRLGWKPRYNSEEAVRMAVRDLVEDLDEEGHHHHHH | not failed
MLTFEKVLEIFADYLTADETIEVYISRHGCVRVEFDQDFHYCSGEVCHTPKELFNLLADDYRTYVEIELTKGRRELTEDDEREADALCKRHLERWREKLE | failed
MGHHHHHHSHNQEHQLGNNTLSSHLQIDKMTDNKTGEVLISENVVASIQPAEGSFEGDLKVPRMEEKEALVPIQKATDSFHTELHPRVAFWIIKLPRRRSHQDALE | failed
MRFKAELMNAPEMRRALYRIAHEIVEANKGTEGLALVGIHTRGIPLAHRIARFIAEFEGKEVPVGVLDITLYRDDLTEIGYRPQVRETRIPFDLTGKAIVLVDDVLYTGRTARAALDALIDLGRPRRIYLAVLVDRGHRELPIRADFVGKNVPTSRSEVVKVKVEEVDGEDRVELWEREGA | not failed
MLAVSFIAGVILIGLYGVDSSERYIAVSELLANPQDYSGQNINAMGVVEDRSLHKDPGVTSFDLKDENDENLKIHVNYVGNLPSNLAEGKQVTIRGSMISESTFEANKIVTGCPSKYTELEHHHHHH | failed
MSLAEKIKVLIVDDQVTSRLLLGDALQQLGFKQITAAGDGEQGMKIMAQNPHHLVISDFNMPKMDGLGLLQAVRANPATKKAAFIILTAQGDRALVQKAAALGANNVLAKPFTIEKMKAAIEAVFGALK | not failed
